Reference: paper PMC7691350, “Integron gene cassettes harboring novel variants of D-alanine-D-alanine ligase confer high-level resistance to D-cycloserine” (Scientific Reports, 2020)
Like-named read-outs stand apart in the source and are kept apart here.

Experiments:
[1] = test system: Nc1ncnc2c1ncn2[C@@H]1O[C@H](COP(=O)(O)OP(=O)(O)OP(=O)(O)O)[C@@H](O)[C@H]1O; experiment: purified protein; settings: 100 mM D-alanine, ATP 5-320 µM, 10 mM MgCl2, 10 mM KCl, 100 mM HEPES pH 7.5, 37 °C
C[C@@H](N)C(=O)O = experiment: purified protein; settings: second D-alanine binding, 500 µM ATP, 10 mM MgCl2, 10 mM KCl, 100 mM HEPES pH 7.5, 37 °C
Ddl6 = experiment: PK/LDH-coupled spectrophotometric assay, […] nm; type: biochemical; settings: 10 mM MgCl2, 10 mM KCl, 100 mM HEPES pH 7.5, 37 °C

| Molecule | Km [1] [µM] | Km (C[C@@H](N)C(=O)O) [µM] | kcat (C[C@@H](N)C(=O)O) [s⁻¹] | kcat/Km (C[C@@H](N)C(=O)O) [M⁻¹ s⁻¹] | Km (Ddl6; read-out: Km, ATP, 100 mM D-alanine, ATP 5-320 µM) [µM] | Km (Ddl6; second D-alanine binding, 500 µM ATP, read-out: Km, D-ala2) [µM] |
| --- | --- | --- | --- | --- | --- | --- |
| DdlTd (Treponema denticola ATCC 35405) | 19.08 | 450 | 3.74 | 8290 |  |  |
| Nc1ncnc2c1ncn2[C@@H]1O[C@H](COP(=O)(O)OP(=O)(O)OP(=O)(O)O)[C@@H](O)[C@H]1O [ATP] |  |  |  |  | 55 |  |
| C[C@@H](N)C(=O)O [D-alanine] |  |  |  |  |  | 390 |
| DdlAEc (Escherichia coli K-12) | 48.99 | 520 | 6.43 | 12500 |  |  |
